Source: patent US20250352667A1

Key:
[1] = target: KEAP1 (wild-type full-length), His-tagged (human) (UniProt Q14145); assay: AlphaScreen; 76.8 nM FLAG-NRF2, 150 nM His-KEAP1; Rep 1
[2] = target: KEAP1 (wild-type full-length), His-tagged (human) (UniProt Q14145); assay: AlphaScreen; 1228.8 nM FLAG-NRF2, 150 nM His-KEAP1; Rep 1
[3] = target: KEAP1 (wild-type full-length), His-tagged (human) (UniProt Q14145); assay: AlphaScreen; 19.2 nM FLAG-NRF2, 150 nM His-KEAP1; Rep 2
[4] = target: KEAP1 (wild-type full-length), His-tagged (human) (UniProt Q14145); assay: AlphaScreen; 307.2 nM FLAG-NRF2, 150 nM His-KEAP1; Rep 2
[5] = target: KEAP1 (wild-type full-length), His-tagged (human) (UniProt Q14145); assay: AlphaScreen; 9.6 nM FLAG-NRF2, 150 nM His-KEAP1; Rep 2
[6] = target: KEAP1 (wild-type full-length), His-tagged (human) (UniProt Q14145); assay: AlphaScreen; 614.4 nM FLAG-NRF2, 150 nM His-KEAP1; Rep 1
[7] = target: KEAP1 (wild-type full-length), His-tagged (human) (UniProt Q14145); assay: AlphaScreen; 1228.8 nM FLAG-NRF2, 150 nM His-KEAP1; signal against NRF2 only
[8] = target: KEAP1 (wild-type full-length), His-tagged (human) (UniProt Q14145); assay: AlphaScreen; 9.6 nM FLAG-NRF2, 150 nM His-KEAP1; Rep 1
[9] = target: KEAP1 (wild-type full-length), His-tagged (human) (UniProt Q14145); assay: AlphaScreen; 4.8 nM FLAG-NRF2, 150 nM His-KEAP1; Rep 2
[10] = target: KEAP1 (wild-type full-length), His-tagged (human) (UniProt Q14145); assay: AlphaScreen; 38.4 nM FLAG-NRF2, 150 nM His-KEAP1; Rep 1
[11] = target: KEAP1 (wild-type full-length), His-tagged (human) (UniProt Q14145); assay: AlphaScreen; 1228.8 nM FLAG-NRF2, 150 nM His-KEAP1; Rep 2
[12] = target: KEAP1 (wild-type full-length), His-tagged (human) (UniProt Q14145); assay: AlphaScreen; 153.6 nM FLAG-NRF2, 150 nM His-KEAP1; Rep 1
[13] = target: KEAP1 (wild-type full-length), His-tagged (human) (UniProt Q14145); assay: AlphaScreen; 2.4 nM FLAG-NRF2, 150 nM His-KEAP1; signal against NRF2 only
[14] = target: KEAP1 (wild-type full-length), His-tagged (human) (UniProt Q14145); assay: AlphaScreen; 38.4 nM FLAG-NRF2, 150 nM His-KEAP1; signal against NRF2 only
[15] = target: KEAP1 (wild-type full-length), His-tagged (human) (UniProt Q14145); assay: AlphaScreen; 2.4 nM FLAG-NRF2, 150 nM His-KEAP1; Rep 2
[16] = target: KEAP1 (wild-type full-length), His-tagged (human) (UniProt Q14145); assay: AlphaScreen; 614.4 nM FLAG-NRF2, 150 nM His-KEAP1; signal against NRF2 only
[17] = target: KEAP1 (wild-type full-length), His-tagged (human) (UniProt Q14145); assay: AlphaScreen; 307.2 nM FLAG-NRF2, 150 nM His-KEAP1; Rep 1
[18] = target: KEAP1 (wild-type full-length), His-tagged (human) (UniProt Q14145); assay: AlphaScreen; 2.4 nM FLAG-NRF2, 150 nM His-KEAP1; Rep 1
[19] = target: KEAP1 (wild-type full-length), His-tagged (human) (UniProt Q14145); assay: AlphaScreen; 76.8 nM FLAG-NRF2, 150 nM His-KEAP1; signal against NRF2 only
[20] = target: KEAP1 (wild-type full-length), His-tagged (human) (UniProt Q14145); assay: AlphaScreen; 4.8 nM FLAG-NRF2, 150 nM His-KEAP1; Rep 1
[21] = target: KEAP1 (wild-type full-length), His-tagged (human) (UniProt Q14145); assay: AlphaScreen; 4.8 nM FLAG-NRF2, 150 nM His-KEAP1; signal against NRF2 only
[22] = target: KEAP1 (wild-type full-length), His-tagged (human) (UniProt Q14145); assay: AlphaScreen; 76.8 nM FLAG-NRF2, 150 nM His-KEAP1; Rep 2
[23] = target: KEAP1 (wild-type full-length), His-tagged (human) (UniProt Q14145); assay: AlphaScreen; 153.6 nM FLAG-NRF2, 150 nM His-KEAP1; Rep 2
[24] = target: KEAP1 (wild-type full-length), His-tagged (human) (UniProt Q14145); assay: AlphaScreen; 19.2 nM FLAG-NRF2, 150 nM His-KEAP1; signal against NRF2 only
[25] = target: KEAP1 (wild-type full-length), His-tagged (human) (UniProt Q14145); assay: AlphaScreen; 614.4 nM FLAG-NRF2, 150 nM His-KEAP1; Rep 2
[26] = target: KEAP1 (wild-type full-length), His-tagged (human) (UniProt Q14145); assay: AlphaScreen; 153.6 nM FLAG-NRF2, 150 nM His-KEAP1; signal against NRF2 only
[27] = target: KEAP1 (wild-type full-length), His-tagged (human) (UniProt Q14145); assay: AlphaScreen; 38.4 nM FLAG-NRF2, 150 nM His-KEAP1; Rep 2
[28] = target: KEAP1 (wild-type full-length), His-tagged (human) (UniProt Q14145); assay: AlphaScreen; 307.2 nM FLAG-NRF2, 150 nM His-KEAP1; signal against NRF2 only
[29] = target: KEAP1 (wild-type full-length), His-tagged (human) (UniProt Q14145); assay: AlphaScreen; 19.2 nM FLAG-NRF2, 150 nM His-KEAP1; Rep 1

KEAP1 (wild-type full-length), His-tagged (human), sequence (Q14145 2-624 limits assumed, form in doubt): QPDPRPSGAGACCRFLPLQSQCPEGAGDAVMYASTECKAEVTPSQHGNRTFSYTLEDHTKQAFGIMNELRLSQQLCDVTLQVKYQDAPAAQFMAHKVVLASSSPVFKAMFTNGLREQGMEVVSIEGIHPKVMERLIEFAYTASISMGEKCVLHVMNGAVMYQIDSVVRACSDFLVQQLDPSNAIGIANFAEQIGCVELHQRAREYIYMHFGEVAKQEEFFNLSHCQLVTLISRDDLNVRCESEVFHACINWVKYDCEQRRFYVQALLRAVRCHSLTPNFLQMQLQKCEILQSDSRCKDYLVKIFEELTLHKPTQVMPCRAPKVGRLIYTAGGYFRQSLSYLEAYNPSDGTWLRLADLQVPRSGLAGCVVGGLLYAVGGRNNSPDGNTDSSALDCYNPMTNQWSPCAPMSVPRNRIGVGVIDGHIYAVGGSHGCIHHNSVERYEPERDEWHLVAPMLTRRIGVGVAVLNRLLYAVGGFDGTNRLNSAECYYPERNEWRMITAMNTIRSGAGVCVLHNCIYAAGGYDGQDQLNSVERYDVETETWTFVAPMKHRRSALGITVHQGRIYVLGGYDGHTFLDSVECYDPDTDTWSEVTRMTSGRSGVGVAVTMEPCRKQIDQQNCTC

**Q.** With “NRF2 isoform 2 (E63G/E66G full-length), FLAG-tagged” as the substance, how does the A-counts [1] read?
**A.** 2140 A-counts

**Q.** What about the A-counts [2] of the same substance?
**A.** 1250 A-counts

**Q.** What about the A-counts [3] of the same substance?
**A.** 1950 A-counts

**Q.** And the A-counts [4]?
**A.** 1650 A-counts

**Q.** What about the A-counts [5] of the same substance?
**A.** 1520 A-counts

**Q.** And the A-counts [6]?
**A.** 1570 A-counts

**Q.** What about the S/N [7] of the same substance?
**A.** 1

**Q.** And the A-counts [8]?
**A.** 1670 A-counts

**Q.** What about the A-counts [9] of the same substance?
**A.** 1480 A-counts

**Q.** What about the A-counts [10] of the same substance?
**A.** 2120 A-counts

**Q.** And the A-counts [11]?
**A.** 1210 A-counts

**Q.** And the A-counts [12]?
**A.** 1820 A-counts

**Q.** And the S/N [13]?
**A.** 1.7

**Q.** What about the S/N [14] of the same substance?
**A.** 1.8

**Q.** What about the A-counts [15] of the same substance?
**A.** 1120 A-counts

**Q.** And the S/N [16]?
**A.** 1.1

**Q.** And the A-counts [17]?
**A.** 1600 A-counts

**Q.** What about the A-counts [18] of the same substance?
**A.** 1080 A-counts

**Q.** What about the S/N [19] of the same substance?
**A.** 1.7

**Q.** What about the A-counts [20] of the same substance?
**A.** 1390 A-counts

**Q.** And the S/N [21]?
**A.** 1.8

**Q.** And the A-counts [22]?
**A.** 1900 A-counts

**Q.** What about the A-counts [23] of the same substance?
**A.** 1840 A-counts

**Q.** What about the S/N [24] of the same substance?
**A.** 1.8

**Q.** And the A-counts [25]?
**A.** 1400 A-counts

**Q.** What about the S/N [26] of the same substance?
**A.** 1.5

**Q.** And the A-counts [27]?
**A.** 1960 A-counts

**Q.** And the S/N [28]?
**A.** 1.1

**Q.** What about the A-counts [29] of the same substance?
**A.** 1700 A-counts

**Q.** For “NRF2 isoform 2 (wild-type full-length), FLAG-tagged”, which A-counts [1] is on record?
**A.** 3730 A-counts

**Q.** And the A-counts [2]?
**A.** 1480 A-counts

**Q.** What about the A-counts [3] of the same substance?
**A.** 3260 A-counts

**Q.** And the A-counts [4]?
**A.** 2860 A-counts

**Q.** And the A-counts [5]?
**A.** 2590 A-counts

**Q.** What about the A-counts [6] of the same substance?
**A.** 2430 A-counts

**Q.** And the S/N [7]?
**A.** 1.3

**Q.** What about the A-counts [8] of the same substance?
**A.** 2310 A-counts

**Q.** And the A-counts [9]?
**A.** 1670 A-counts

**Q.** And the A-counts [10]?
**A.** 3470 A-counts

**Q.** What about the A-counts [11] of the same substance?
**A.** 1470 A-counts

**Q.** And the A-counts [12]?
**A.** 3200 A-counts

**Q.** What about the S/N [13] of the same substance?
**A.** 2

**Q.** And the S/N [14]?
**A.** 3.4

**Q.** What about the A-counts [15] of the same substance?
**A.** 1010 A-counts

**Q.** And the S/N [16]?
**A.** 2.1

**Q.** What about the A-counts [17] of the same substance?
**A.** 2970 A-counts

**Q.** And the A-counts [18]?
**A.** 1130 A-counts

**Q.** What about the S/N [19] of the same substance?
**A.** 3.4

**Q.** And the A-counts [20]?
**A.** 1740 A-counts

**Q.** What about the S/N [21] of the same substance?
**A.** 2.7

**Q.** What about the A-counts [22] of the same substance?
**A.** 3910 A-counts

**Q.** And the A-counts [23]?
**A.** 3500 A-counts

**Q.** And the S/N [24]?
**A.** 4.2

**Q.** What about the A-counts [25] of the same substance?
**A.** 2290 A-counts

**Q.** And the S/N [26]?
**A.** 2.8

**Q.** What about the A-counts [27] of the same substance?
**A.** 3460 A-counts

**Q.** And the S/N [28]?
**A.** 2.2

**Q.** What about the A-counts [29] of the same substance?
**A.** 3480 A-counts
